Results on two molecules are retold here after PMC9884024 (2022).

B2: MdHY5 (as used in the BLI assay) (natural protein)
chain: MQEQATSSLAASSLPSSSERSSSSAFHLEVKEGMESDEEIGRVPEIGGESAGASASARENGLLAGPDQVQTAGESQRKRGRNPADKESKRLKRLLRNRVSAQQARERKKAYLNDLEVRVKELEQKNSELDERLSTLQNENQMLRHILKNTTASRRGADGGANAD

Holding throughout (assay): BLI
In assay [1] the target is B2.
In assay [2] the target is B2.
Assay [3] concerns the target MdMPK6-15G (as used in the BLI assay) (Malus domestica (apple)).

Usually Kd stands for a measure of binding affinity in units of concentration. Read a high Kd as a looser complex. Broadly, the koff is a measure of how fast the partners let go of each other.

B1: MdMPK6-02G (as used in the BLI assay) (enzyme)
chain: MEGGGRSADTMMSEAAPPSQPDPNHPQQHPPPPHHAMGGVESIPATLSHGGRFIQYNIFGNVFEVTAKYKPPIMPIGKGAYGIVCSALNSETNEHVAVKKIANAFDNRIDAKRTLREIKLLRHMDHENVVAIRDIIPPPQRNFFNDVYIAYELMDTDLHQIIRSNQALSEEHCQYFLYQILRGLKYIHSANVLHRDLKPSNLLLNANCDLKICDFGLARVTSETDFMTEYVVTRWYRAPELLLNSSDYTAAIDVWSVGCIFMELMDRKPLFPGRDHVHQLRLLMELIGTPSEAELQFLNENAKRYIRQLPLYRRQSFTEKFPHVHPSAIDLVEKMLTFDPTRRITVEDALAHPYLTSLHDISDEPVCLTPFSFDFEQHALSEEQMKELIYREALAFNPEYQRQ
As to B1, the Kd in assay [1] worked out at 119 nM. In addition, the koff in assay [2] was 0.00355 s⁻¹.
As for B2, in assay [3], the affinity, expressed as Kd, was 93.9 nM and the off-rate constant (koff) amounted to 0.00105 s⁻¹.
